The values that follow come from a protein production outcome set (Wang et al. 2014).

The nature of this series: label from the status in PepcDB records.

On to “MIVIEKLTVDMARGVENNLEGLQIFVAVAEAGGFTAAAERLGMTKANVSLQVGRLEAQLGATLFTRTTRRVKLTEAGQALYLDAQPALAALRDALLQAGHGAAELSGTLRLTAPVSHMAESVAPAATQFIRRHPGLQLELHAIDRMVDLVAEGMDLAIRLGTLRDSSLRALKLGEFAQQLVASPAYLRERGMPAHPGELAGHDWVALTLLKTPLTWRFAGAGGAEETVRMRARIKVDSAASLRSLLLAGAGMSVLDSFSVQEDLRQGRLIHLLPQWTLPKGGVYAVFPPGRHAPAAARAFVEFYRVLLARPV”, for which the protein production entry is “failed”.
Consider “MIVIYFFSTKSQQFFAYVWAIFPVIAFFLVSFYTLDFLFSPSYLIMVPVFTIMFKINYKKDYSFVALLKMSIRQFVISFLAFIASSSFSWSIILNSSVTFLIVYLFYSSATPMRYHSYLMMFTFCQLIQVKGNTFLMQSQVVAFLIGLFLLALTLNAWWQTGLRQLTSLKSRGHVRFFKSIQLNMKQQKLAVINFWHDLQQIFFGITSFKQFLESPDERVQRFRLAIRMSFTITLSFILMWSVGGIKIIWIPMNVFLLLHPVKAEMNTRIKTRFWGTLLGCFLSLFVVNWLQLPLTHLIVSSLIGIFVYALKPGTVLQVTMATIFGLCLATISLRGMYAAELRVSFVLLAIFVVCLIDLGLFVYQRILRF”, for which the protein production result is “failed”.
The result for “MIVKCPICDGTGKKVVKYKTCPVCEGTGFIDEFSPKQHMKRVSKRATYDLDYGEIPCPKCKGTGKVPVYAKCDFCGGSGKVVKCDRCGAIIGKYPDFKDRTLCDKCLKEEEERKKGLRNVYVFDELATFYDVEPGKFYKGVVTRIEKYGAFINLNEQVRGLLRPRDMISLRLENLNVGDEIIVQAIDVRPEKREIDFKYIPLTTYDLVKYEKEVPLSQIKDISQNLVEMRDQVVHIRGEVVQIVQTPGPTVFTITDGTDFAWVAALEIAGLRAHPDVKVGDIVDVIGRVTIRDGRLQIERIKLQKLEGDEAEEIRKKIEEEIDRRAEPAKDIPFLVKSEVLERLRPKMADVAKRIRKAVLDGRPIIIRHHADTDGYCGGIALEKAILPIIDKFAIDVDAIWHFFKRRPSKAPFYELEDVTKDLVFSIEDALKFGQKLPLIVLIDNGSTDEDIPAISKAKAYGIEVIVIDHHFPGEVVDGKVEVDDYVDAHVNPYLVGGDSNLTAGVLGTEIARMINPDVEDEIKHIPGIAVVGDHAKGEEAEQYVKIALDRLNELSKKYGKGRTYDREYLEKIALCMDFEAFYLRFMDGKGIVDDILATNIKEFGRHEELIDILYEQAMKMVERQMKAVIPALKTEFLENGIILNTLDVEKYAHKFTFPAPGKTTGFAHDYIVQKYGEDKPIITLSYGPDFGVVRATDAVHEKYNFNLNLIVEQLMEEIPEASLDGGGHECAGSLKFVEGLRDKVIGRFIEIIKNMKPKEQ” reads “failed”.
Take “MIVMSKNVDEAISRKEEKCIMSFIPNMITIANFVCGLLAIYAVFVHDIYLGAVFIITGMLFDFFDGMVARKLDSVSEIGGELDSFADLVTFGVAPSILAYSASLKDLQSIGMICALTYSICGMLRLARFNTQQSKLPTFIGMPIPFAAMCLLILCFLKNPVSVAFGTCVLAYLMVSKIKFPHFKKDIAESLKPGRLD”: the protein production result was “failed”.
On to “MIWRGEKLISNKVKIVRLLNKSKKSLLRGIFSRTTVIAILLILQLLFLLASYSWLEQYRVWLATVEHILTIGAVLYLVNSEMDALSRVTWLILVMIAPLLGAMFLMYTKFDWGYRGLKQRLETLIDESQIYLEDDPETLNQLKSSTSTTYHLVQYFEKAHGNFPVYRNTDVTFLPTGEAFFEKMKEELLKAKKYIFLEFFIIDEGIMWGEILSILEQKVEEGVEVRILYDGMIEITKLSFDYTKRLEKIGIKAKAFSPISPFISTYYNYRDHRKIVVIDGVVGMTGGVNLADEYINHIELFGHWKDSGIMLKGKAVDSFLLLFLQMWSITEEKMLVAPYLGVHDDLVENEGYVIPYGDSPLDTDKVGENVYIDILNHAREYVYIMTPYLILDSELEHAIQFAAERGVDVRIIMPGIPDKPIPYALAKTYYQALTKSGVKIYEYTLGFVHSKIFLSDNTKAVVGTINLDYRSLYHHFECAVYLYKVDAIQDIYRDYMDTLNKSRLVSLKDINNIPKFQKVIGIVTKTIAPLL”, for which the protein production entry was “failed”.
The value for “MIYENHANTAENNGPLALVLGANGGVGSHVLKMLLQRGWQVRALTRQRVAAGASDGIERVTGDVMNRQDVMDAAKGATLIVHAVNPPGYRDWERQVLPMLDNTIAAAEACGARILLPGTVYNFGPDAFPLLKEDSPQQPFTRKGALRVEMERRLKMASMRGVPVLIVRAGDFFGPDAKNNWFSQMLVRPGKPVRSVQNPAAPHAGHQWAYLPDVAETIGRLLDRSGELPPFAVYHMEGFWDFDGLQLVGAIERAVGRPVKMRRMSWLAIKLAAPFVPLFREVLEMQYLWHMPLRMSNGKLTDFLGAEPKTPVDIAVSATLTSLGCIEQPRVPASLHRPVDAGGRV” was “failed”.
The result for “MIYLFSHAGLRDLRDFIDRSTLFAFDLDGTLAPIVSDPAGIMIPPDVHERLVRLNGTASVAVVTGRARVDAARHLGFAPRFLVGNHGAEGLPGADAAEREFIGLCRGWMTQLGELLPEGEGTGIVMEDKSATLSLHYRNAPDRENAHQRILAAVSRLLPAPRRVSGKLVENLVPAAAPHKGDALRCIMRHLGCARALFVGDDVTDEDVFRLGDEAIFGIRVGNSGGSAARYFIRGQDEMAPLLDEILAVL” reads “failed”; that for “MIYMPIVVAVDKKSDRAERVLRFAAEEARLRGVPVYVVHSLPGGGRTKDEDIIEAKETLSWAVSIIRKEGAEGEEHLLVRGKEPPDDIVDFADEVDAIAIVIGIRKRSPTGKLIFGSVARDVILKANKPVICIK”, “not failed”; that for “MKAANSGRTAAALECFERVVKLQSTPVNWSYLAFCVARERQQFEHATRLCEEAVRREPRSSVLYLNLGKVYLLSGRKDDAIRTFRQGLLYERNTLIESELRRLGLRKPPVLNFLAREHPVNKYLGIMLKKLKIRLEHHHHHH”, “failed”.
In the case of “MKAFFSFVIRWVIPLLGLIALSLIIWFIGPLLEFLVPEGRRWALIIFIFALWIGYRVFCIIQARRNAAKVLQSLAADTPPDPDSVATAEELAALRQRMDEALALLKKAKLGGDERRNLYELPWYVIIGPPGSGKTTALVNSGLHFPLAAQLGAGAVRGVGGTRNCDWWFTDQAVLLDTAGRYTTQDSHATVDKAAWLGFLDLLKTQRSRRPIDGAFVAISLSDLLLGSEAERAAHAAAIRLRIQELYTQLGVRFPIYLMLTKLDLVPGFMEFFDSLSKEERAQVWGMTFALDDGKSGDSPLAHLPAELAALEQRLNERLVERLQQERDPARRDLIYGFPQQFAALKESLQSFLEGVFKPNAFEERVLLRGVYFTSGTQEGSPIDRLIGAMAQSMNLDRQHLARQTGTGRSYFIEKLFSAVAFAERGLVGVNPKVERRRKWIARGALAGTVALVLVVSTLWIISYRANQAYIAQVDQRVGPVRQDVQNLSPAQRDVLAVLPLLNATRHLAGDAPGWAEGLGLYQGDMLEAESASVYRKLLVAVFAPRLMTRIEEQLHSGGNSDFLYEGLKAYLMLADSEHYDPDFIKAWITLDWDHTLARDLPPEQRQALTGHLQALFEKHPPNARLDQRLIDDLRRQLQQLPVAQRVYDRVKRAKLPDGVPDFRLSEAGGRDAALVFTRKSGKPLSEPLSGLFTAKGYRQGFLLASLNQAGTLAEEQWVLGRDQADQQNVASLAADVRRLYFQDYLRQWDALLADIDFVPITSVAQAADVLRILSGPTSPLKKLLVAVAKETDLQQEERLLAAQGQKVEGGVDQLKQRLGNLLGQEQSANPAAVASSEDPVSAHFAELNSLVSKGEGEPAAIDGLLADMNALYVQVSAMVGASGDALLGEAKNQASAAAARVSLTAERQPPVVQGLVKSVVGSTTNTMMGGVRNQLNAAWVSEVVNVYRQSLSGRYPMSPGSSRDATLEDFGQFFGTGGVMDNYFRKYLQPYVNTSTTTWSWQPGAAQKLGISPGVLQTFQRASNIRDAFFRSSGGTQPAVRFELKPVAMDANISQFLLDLDGQQLSYDHGPSRPVAMQWPNPGSIGVVRLSIMPPSATGRSGITLDGPWAWFRLLEQSDLTATNSPDRFNLRLRVDGASISYELRASSAFNPFKSRVLSGFSLPERL”, the protein production entry is reported as “failed”.
The value for “MKAKEVSLVALFVALTSVGAQISVSIGPVPLTLQVFFVILAGLVLGPKLGFLSILIYDILGALGIPVFAGFSGGIAHILGPTGGYIIAFPIATFIAGLGRGKVRYLTSLMGLLVIYLIGWMWLARFVGFNKAFILGVLPFIVPDIVKAATAVIIAERLQGNT” was “failed”.
The result for “MKANAIASDIKISKRDLEVAALAVIGTVAYIHYLWSFVLKITSPILIARGIFETTYSVLSIGLAKYVRIYYPLGIASSFTGAALTVIKLHLYESEIFSIINIVFDIFSVPVCAFLFIKNMEVINWH” reads “failed”.
